This note sets out measurements from patent US20260034234A1 (AGENSYS, published 2026).

Test [1] has as its target T1, 191P4D12 (human, wild type, on cells) (human, UniProt Q96NY8 32-510).
T1 construct: 510 amino acid ORF expressed on PC3, RAT/Rat1(E) cells and present in cancer cell lines and tumor specimens; also called human 191P4D12; wild-type 191P4D12
T1 sequence: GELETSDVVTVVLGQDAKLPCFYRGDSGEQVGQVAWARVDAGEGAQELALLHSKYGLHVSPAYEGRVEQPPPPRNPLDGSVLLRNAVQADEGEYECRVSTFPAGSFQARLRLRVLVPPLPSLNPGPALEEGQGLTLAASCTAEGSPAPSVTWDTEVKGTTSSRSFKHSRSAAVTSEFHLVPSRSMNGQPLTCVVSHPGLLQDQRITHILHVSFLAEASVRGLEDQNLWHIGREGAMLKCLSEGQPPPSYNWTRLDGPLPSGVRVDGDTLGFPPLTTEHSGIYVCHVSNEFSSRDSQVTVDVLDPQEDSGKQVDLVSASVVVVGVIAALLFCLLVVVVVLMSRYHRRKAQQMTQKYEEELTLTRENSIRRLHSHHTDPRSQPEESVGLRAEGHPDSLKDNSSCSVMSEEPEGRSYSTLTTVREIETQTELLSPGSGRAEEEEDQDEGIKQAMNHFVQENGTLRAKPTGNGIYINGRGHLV
As to the kind of experiment: FACS titration on PC3 cells expressing 191P4D12.

Test [2] addresses T2, Rat 191P4D12 (on PC3 cells) (rat, UniProt D3ZET1 31-509).
T2 construct: whole, on cells; also called PC3-rat-191P4D12; Rat ortholog
T2 sequence: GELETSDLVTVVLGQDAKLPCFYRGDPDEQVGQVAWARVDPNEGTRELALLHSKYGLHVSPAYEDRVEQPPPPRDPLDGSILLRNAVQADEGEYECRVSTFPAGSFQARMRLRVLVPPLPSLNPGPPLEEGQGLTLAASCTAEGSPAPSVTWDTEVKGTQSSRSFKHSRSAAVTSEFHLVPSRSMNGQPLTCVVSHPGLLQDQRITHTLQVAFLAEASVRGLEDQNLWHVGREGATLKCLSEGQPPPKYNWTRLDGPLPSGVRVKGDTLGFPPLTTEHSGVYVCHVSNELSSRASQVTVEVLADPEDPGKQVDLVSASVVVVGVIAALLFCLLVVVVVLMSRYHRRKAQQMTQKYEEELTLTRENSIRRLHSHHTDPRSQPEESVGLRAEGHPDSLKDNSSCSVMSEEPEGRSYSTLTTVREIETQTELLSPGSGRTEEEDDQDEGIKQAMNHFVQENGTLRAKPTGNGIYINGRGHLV
As to the kind of experiment: FACS on PC3 cells expressing the rat ortholog. From the text:
The 191P4D12 protein of human, cynomolgus, rat and murine origin was overexpressed recombinantly in a PC3 cell line to determine cross-reactivity of Ha22-2(2,4)6.1 to these orthologs. It was shown that Ha22-2(2,4)6.1 strongly cross-reacts with cynomolgus and rat orthologs of 191P4D12 (FIG. 23).

B1: Ha22-2(2,4)6.1 MAb (antibody, human IgG1, kappa, V domains shown)
VH: EVQLVESGGGLVQPGGSLRLSCAASGFTFSSYNMNWVRQAPGKGLEWVSYISSSSSTIYYADSVKGRFTISRDNAKNSLSLQMNSLRDEDTAVYYCARAYYYGMDVWGQGTTVTVSS
VL: DIQMTQSPSSVSASVGDRVTITCRASQGISGWLAWYQQKPGKAPKFLIYAASTLQSGVPSRFSGSGSGTDFTLTISSLQPEDFATYYCQQANSFPPTFGGGTKVEIKR
notes: Fully human IgG1 kappa from XenoMouse; Used biotinylated in the Western blot; also called 191P4D12 MAb Ha22-2(2,4)6.1; Ha22-(2,4)6.1 MAb
Broadly, the EC50 (read off the curve) is the concentration needed to bring the measured effect to its halfway point. A word on the EC50: it is the concentration needed to bring the measured effect to its halfway point. A lower EC50 goes with higher potency in that assay. In the case of B1, the “EC50 (read off the curve)” value in test [1] was about 0.4 nM. The same molecule came in with an EC50 in test [2] of 0.44 nM.
